# Measurements published in US20030049258A1, “Method of increasing the contractility of a heart, a heart muscle or cells of a heart muscle” (priority 2001, published 2003).
# B1: nt-del-phosducin: N-terminal truncated human phosducin variant of SEQ ID No: 2 (52 N-terminal amino acids deleted), expressed from adenovirus Ad-nt-del-phosducin-GFP (protein, listed as Homo sapiens)
# chain: MSSPQSRDDKDSKERFSRKMSVQEYELIHKDKEDENCLRKYRRQCMQDMHQKLSFGPRYGFVYELESGEQFLETIEKEQKITTIVVHIYEDGIKGCDALNSSLICLAAEYPMVKFCKIKASNTGAGDRFSSDVLPTLLVYKGGELLSNFISVTEQLAEEFFTGDVESFLNEYGLLPEKEMHVLEQSNMEEDME
# modifications: GFP expressed via adenovirus
# B2: full-length phosducin: Wild type full-length phosducin, Gβγ binding protein; overexpressed in transgenic mouse hearts (protein)
# chain: MEEAKSQSLEEDFEGQATHTGPKGVINDWRKFKLESQDSDSIPPSKKEILRQMSSPQSRNGKDSKERVSRKMSIQEYELIHKEKEDENCLRKYRRQCMQDMHQKLSFGPRYGFVYELETGKQFLETIEKELKITTIVVHIYEDGIKGCDALNSSLTCLAAEYPIVKFCKIKASNTGAGDRFSLDVLPTLLIYKGGELISNFISVAEQFAEEFFAGDVESFLNEYGLLPEREVHVLEHTKIEEEDVE
# Experiments:
# [1] = tested on: adult ventricular cardiomyocytes; assay: Intracellular cAMP formation in cardiomyocytes (ELISA); format: cell-based, rabbit
# Protocol: (§1) Single calcium-tolerant ventricular myocytes were isolated from White New Zealand rabbits. Cardiomyocytes from healthy or failing rabbit hearts were isolated according to the same protocol (Laugwitz et al. (2001) Circ Res. 88, 688-95). Briefly, the hearts were perfused and digested with collagenase. The isolated cardiomyocytes were then resuspended and cultured in modified M199 on laminin-precoated dishes (5-10 μg/cm^2) at a density of 1.5×10^5 cells per cm^2 (at 5% CO2 and 37° C.). The cells were infected with adenovirus (multiplicity of infection (moi) 1 pfu/cell) 5 hours after plating. 50-60% of the infected cardiomyocytes express the transgene at this titer. Cardiomyocytes were harvested 48 hours after adenoviral infection. The cells were homogenized and cytosolic extracts were then used for western bloffing by using a polyclonal rabbit antibody raised against phosducin. Goat anti-rabbit second antibodies by Dianova, Germany, were used as second antibodies.
# Intracellular cAMP formation in cardiomyocytes: The effects of nt-del-phosducin expression on G protein-mediated signalling are shown based on the measurement of cAMP accumulation in isolated cardiomyocytes after ex vivo gene transfer. Cardiomyocytes were investigated 48 hours after adenoviral infection. The cells were harvested and stimulated with increasing concentrations of isoproterenol for 20 minutes. […]
# [2] = tested on: rabbits with heart failure; assay: Pacing-induced heart failure after in vivo adenoviral gene transfer: tip catheterization and echocardiography; design: species or system New Zealand White rabbits
# Description: Model of Heart Failure: Medtronic pacemakers were implanted into New Zealand White rabbits (weight 3.6±0.3 Kg; from Harlan, Munich, Germany). Two days afterwards, rapid pacing was initiated at 320 beats/min. Under this protocol, a tachycardia-induced heart failure (HF) develops reproducibly over one week. Pacing was then continued at 360 beats/min, which predictably led to a further deterioriation of heart failure. The average contractility in failing hearts was 2200±320 mmHg/sec (vs. 4000±390 mmHg/sec in healthy controls; p<0.05), and LVEDP increased from 3.6±0.4 mmHg to 13.5±1.2 (p<0.05).
# Adenoviral Gene Transfer To Rabbit Myocardium: After the first week of rapid pacing, all rabbits received catheter-based adenoviral gene transfer (5×10^9 pfu) to the myocardium as described before (Weig et al. (2000) Circulation 101, 1578-1585). For the intervention, the rabbitswere anesthetized with fentanyl and propofol.
# Myocardial Contractility Measurement by Echocardiography and Intraventricular Tip Catheterization: Left ventricular contractility was examined before the initiation of rapid pacing, before adenoviral gene transfer, and at the end of the protocol (two weeks after the start of pacing and one week after gene transfer). The rabbits were anesthetized as described before; ECG was monitored continuously.
# For echocardiography, a 7.5 MHz probe was fixed on a tripod. Standard sections were recorded, which were well reproducible. For tip catheter measurements, a Millar 3F tip catheter connected to a differentiating device was placed in the left ventricle. After definition of basal contractility and left ventricular pressure, 200 μL of NaCl (0.9%) was injected as a negative control. Isoproterenol was infused at increasing doses. After a sufficient equilibration period, tip catheter measurements were carried out.
# Improvement of LV dysfunction in pacing-induced heart failure after adenovirus delivery: Ad-GFP and Ad-nt-del-phosducin-GFP were directly delivered to rabbit hearts after 1 week of rapid pacing, and hemodynamic parameters were measured after another week of pacing at 360 bpm. […]
# [3] = tested on: cardiomyocytes isolated from failing hearts; assay: Single cell contraction after ex vivo adenoviral gene transfer, failing cardiomyocytes; format: cell-based, rabbit
# Protocol: (§2) Recombinant (E1/E3-Deficient) flag-tagged adenovirus for nt-del-phosducin (Ad-nt-del-phosducin-GFP) was generated, expressing the transgene and green fluorescence protein (GFP) under the control of two independent CMV promoters in a bi-cistronic system (He et al. (1998) Proc Natl Acad Sci USA 95, 2509-14). As a control, Ad-GFP without further transgenes was used. Large virus stocks were prepared as described previously (Laugwitz et al. (1999) Circulation 99, 925-933). Adenoviral titers were determined using plaque titration and GFP expression titration in non E1-expressing cells.
# as §1
# (§3) Single cell contraction after adenovirus delivery: Contractility of infected cardiomyocytes was measured by an electro-optical monitoring system connected to online digitalized assessment of amplitude and velocity of shortening and of relaxation as described before (Laugwitz et al. (2001) Circ Res. 88, 688-95). After the contraction amplitude reached stability, increasing concentrations of isoproterenol were applied.
# [4] = tested on: Gβγ-dependent signalling pathways; assay: IP3 assay: inhibition of Gβγ-mediated effects in adenovirus-infected cardiomyocytes; format: cell-based, rabbit; settings: response to 1 μmol/L bradykinin or 10 μmol/l acetylcholine, 1 minute, vs Ad-GFP
# Protocol: For IP3 assays, adenovirus-infected cardiomyocytes were stimulated with the respective agonists for 1 minute, and the reaction was stopped by adding perchloric acid (4%) and scratching the cells off. They were centrifuged at 2000×g, and then […] of KOH (10 mol/L) was added. The solution was resuspended and centrifuged again, and the protein content of each sample was determined by the method of Bradford (1976) Anal. Biochem. 72, 248-254. The supernatant was used for an assay kit using ^3H-inositol-(1,4,5)-trisphophate and a binding protein (Amersham, cat. no. TRK 1000) to measure IP3 formation, following the manufacturer's instructions.
# For IP3 assays, cardiomyocytes infected with Ad-GFP or Ad-nt-del-phosducin-GFP (Example 1) were stimulated with 1 μmol/L bradykinin or 10 μmol/l acetyl choline, for 1 minute. In addition, basal levels were determined in the absence of agonists. Then the reaction was stopped by adding perchloric acid (4%) and scratching the cells off. They were centrifuged at 2000×g, and then 10 μl of KOH (10 mol/L) was added. The solution was resuspended and centrifuged again, and the protein content of each sample was determined by the method of Bradford^22. The supernatant was used for an assay kit using ^3H-inositol-(1,4,5)-trisphophate and a binding protein (Amersham, cat. no. TRK 1000) to measure IP3 formation, following the manufacturer's instructions. […]
# [5] = tested on: cardiomyocytes isolated from healthy hearts; assay: Single cell contraction after ex vivo adenoviral gene transfer, healthy cardiomyocytes; format: cell-based, rabbit
# Protocol: as §2, §1, §3
# adenylyl cyclase = settings: compared to controls in different cell types and tissues (Bauer et al. 1992; Schulz et al. 1996); cited from earlier work
# [6] = tested on: transgenic heart failure model (β1-TG4); assay: Transgenic mouse overexpressing full-length phosducin cross-bred with heart failure model (histology); format: in vivo; settings: heart-failing mice vs heart-failing mice cross-bred with overexpressing mice
# Protocol: FIG. 8 Histological alterations in transgenic mouse hearts. Hematoxylin/eosin-stained 5 μm sections of paraffin-embedded left ventricular myocardium from healthy wild-type mice and from a transgenic heart failure model (,β-TG4”, see Engelhardt et al. (1999) Proc. Natl. Acad. Sci. USA 96, 7059-64). […] The sequence of full-length phosducin was cloned into a plasmid as described by Engelhardt et al. (1999) Proc. Natl. Acad. Sci. USA 96, 7059-64. The purified linear DNA (1 μg/μl) was injected into fertilized oocytes from superovulated FVB/N mice according to standard procedures. The injected oocytes were transferred to the oviducts of pseudopregnant CD-1 mice. All mice were kept in a specific pathogen-free facility. Generation and investigation of these mice was approved by the responsible government authorities. The F0 generation was screened for integration of the transgene by PCR using specific primers. The transgenic mouse was tested with regard to the effect of overexpression of wild type full-length phosducin on the development of heart failure in a murine disease model.
molecule,measurement,setting,value
"CC(C)NCC(O)c1ccc(O)c(O)c1 (stereo not drawn) [isoproterenol, reference compound]",intracellular cAMP content,"[1]; isoproterenol stimulation, all groups, FIG. 3",increased
B1,LV fractional shortening (FS) by serial echocardiography,[2]; change during the second week of rapid pacing (before gene transfer vs end of experiment),did not change
same,first derivative of LV pressure (dp/dt max),"[2]; one week after gene transfer, in response to isoproterenol, vs Ad-GFP-infected control group",significantly higher
same,increase in systolic LV pressure in response to isoproterenol,"[2]; one week after gene transfer, vs Ad-GFP-infected control group",significantly higher
same,maximal contraction amplitude in response to isoproterenol,"[3]; failing cardiomyocytes, FIG. 5B",enhanced
same,shift of isoproterenol concentration-response curve,[3]; failing cells,significantly shifted to the left
same,Emax of fractional shortening in response to isoproterenol,"[3]; failing cells, infected ex vivo, Hill equation fit",7.8±0.1
same,intracellular IP3 formation,[4],reduced
same,cAMP formation in response to isoproterenol,"[1]; 48 hours after infection, isoproterenol 20 minutes, vs GFP, did not reach statistical significance",trend towards decreased cAMP formation
same,basal and maximal contractility in response to isoproterenol,"[5]; compared to Ad-GFP-infected control cells, FIG. 5A",markedly increased
same,shortening velocity,"[5]; compared with contraction amplitude results, normal and failing cardiomyocytes",Very similar results
same,Emax of fractional shortening in response to isoproterenol,"[5]; healthy cells, infected ex vivo, Hill equation fit",11.2±0.2
same,shift of isoproterenol concentration-response curve,[5]; normal cells,significantly shifted to the left
B2,maximal βAR-dependent adenylyl cyclase stimulability,adenylyl cyclase,significantly decrease
same,degree of heart failure (histologically: myocyte hypertrophy and fibrosis of heart sections),[6],no observable differences
